Measured values taken from patent US11707511B2, “Vaccine compositions and methods of using the same” (The Board of Supervisors of Louisiana State University and …, priority 2017, dated 2023).
“Also recorded” adds a separate entry of the source.

Experiments:
[1] = tested on: medically important Candida spp; test: DC-based immunization with universal peptides, coverage of medically important Candida spp; format: in vivo; conditions: in words
Excerpt: Novel universal peptides as described herein can be excellent peptide vaccines against C. ablicans infection.

[2] = Induction of specific anti-peptide antibody responses in immunized mice; format: in vivo; conditions: BALB/c mice; peptide-pulsed DC; data not shown
Excerpt: (§1) To perform rapid throughput evaluation of peptide vaccine candidates, immunizations were done by use of the similar antigen-pulsed DC based vaccine strategy with modification by totally removing CFA from vaccine formula. Fba peptide was used as positive control.
The double chimeric peptide conjugate vaccines have been tested for their abilities to induce specific anti-peptide antibodies and protective immunity against the disease caused by C. albicans. […] The enhancement in vaccine efficacy was evidenced by both increased survival and reduced or non-detectable fungal burden (colony forming units, CFUs) in kidneys of animals.

C. albicans = test: Active immunization with peptide-pulsed dendritic cells, disseminated candidiasis caused by C. albicans in mice; format: in vivo, Candida albicans
Description: (§2) Active Immunizations with peptide pulsed dendritic cells. […] It allows us to perform rapid throughput evaluation of candidate short peptides. When protective double universal peptide conjugate(s) become identified by this study, immunization approaches suitable for human use will be applied in further studies. All active vaccinations were conducted as previously described (6,7,9). DCs were pulsed in vitro with universal peptide as described before with minor modification by totally removing CFA for last booster (6). Briefly, DCs in culture were pulsed with the peptide antigen (1 μM) on day 6. On day 7, PGE2 (10^-7M) was added along with LPS (2 μg/ml, Sigma) for 24 h to induce DC maturation. On day 9, antigen-pulsed DCs were washed extensively and […] in 200 μl DPBS were given by intraperitoneal (i.p.) route as the priming dose to mice. The mice were boosted i.p. at day 14 and day 28 with fresh antigen-pulsed DCs without adjuvant.
Table 2 lists universal peptide vaccines that induced protection against disseminated candidiasis caused by C. albicans in mice. The universal peptide vaccines listed in Table 1 are expressed at high homology by all analyzed medically important Candida species in addition to C. albicans (see details at Table 2). By dendritic cell (DC) based immunization approach as described herein, each of the universal peptide vaccines was able to protect mice against disseminated candidiasis caused by C. albicans, with the survival rate 80-100% up to 80-120 days post challenge.
as §1

[3] = tested on: C. tropicalis (ATCC 20336); test: Peptide-vaccinated mice challenged with lethal dose of C. tropicalis; format: in vivo
Description: as §2
Peptide-vaccinated mice were challenged with lethal dose of live C. tropicalis cells (ATCC 20336; i.v. challenge dose: 1×10^6/mouse).

C. albicans 3153A = test: Passive transfer of mAbs or mAb cocktails i.p. before lethal i.v. challenge, mouse model of human disseminated candidiasis; format: in vivo, Candida albicans; conditions: Table 14; for Protection of adsorbed mAb: mAb removed by absorption with Candida cells before transfer; for Protection / Protection (grade word): single mAb, C. albicans
Description: Passive transfer of MAbs by intraperitoneal (i.p.) route. The preventive effect of peptide-specific mAbs listed in Table 3 and Table 4 in naïve mice was examined by passive transfer experiments. […] For testing, mice received 0.5 ml of each mAb or 1 ml of two mAbs in combination (0.5 ml of each) intraperitoneally. […] The negative control materials tested in mice were single mAb or DPBS. Control mice received 0.5 ml of the DPBS diluents or single mAb treatment. For each condition, 6- to 8-week-old female BALB/c mice (NCI) were given 0.5 ml of test mAb, or 1 ml two mAb cocktails or control materials intraperitoneally, followed 4 h later by 0.1 ml intravenously of defined lethal dose of yeast cells per milliliter of DPBS. Mice were divided into groups with five mice each and three independent experiments were carried out. In some experiments, mice were given the same dose of mAbs or control materials on every other day post-challenge for two weeks, as compared to the protective efficacy of mAb in combinations. All mice were sacrificed on day 50. For animal groups that were challenged non-albicans candida species, determined optimal challenge doses were applied for each candida strain.
The hybridoma clones that produce the universal peptide specific mAbs listed above were generated from mice vaccinated with peptide-pulsed dendritic cell (DC) preparation as described previously (6). The isotype of mAb was determined with a Mouse Monoclonal Antibody Isotyping Kit (Pierce, USA). […] In detail, BALB/c mice were given an i.p dose of each mAb four hours before hematogenous challenged with a lethal dose of C. albicans3153A cells. […] Importantly, passive protection was prevented by removal of the mAbs by absorption with Candida cells before transfer, which provided strong additional evidence for the protection being due to the mAb.
The three cell wall proteins were selected because of expression during human candidiasis and cell wall association, and included fructose-bisphosphate aldolase (Fba); methyltetrahydropteroyltriglutamate-homocysteine methyltransferase (Met6); hyphal wall protein-1 (Hwp1). The hybridoma clones listed at Table 5, which produce the peptide specific mAbs, were generated from mice vaccinated with peptide-pulsed dendritic cell (DC) preparation as described previously (6). The isotype of mAb was determined with a Mouse Monoclonal Antibody Isotyping Kit (Pierce, USA). […] Importantly, passive protection was prevented by removal of the mAbs by absorption with Candida cells before transfer, which provided strong additional evidence for the protection being due to the mAb).
The preventive effect of each universal peptide-specific mAb was examined by passive transfer experiments. […] For testing, 5 mice of each tested group received 0.5 ml of each mAb intraperitoneally. The negative control materials tested in mice were mAbs absorbed with C. albicans yeast cells (3153A) and DPBS. Control mice received 0.5 ml of the DPBS diluents or adsorbed mAb solution. For each condition, 6- to 8-week-old female BALB/c mice (NCI) were given 0.5 ml of test mAb, or control materials intraperitoneally, followed 4 h later by 0.1 ml intravenously of a suspension containing lethal dose of Candida cells per milliliter of DPBS. Mice were divided into groups with five mice each and three independent experiments were carried out. We have developed neutropenic murine models of disseminated infection by C. glabrata, C. tropicalis and C. parapsilosis. To induce neutropenia, naïve mice received a 200 mg/kg dose of cyclophosphamide (CY) by i.p. on day −3. Prolonged neutropenia were maintained for 30-50 days by giving each animal a 150 mg/kg dose of CY by i.p. every 10 days after infection.

C. auris = test: Passive transfer of mAbs in cyclophosphamide-immunosuppressed B6.129X1Elane mice, disseminated infection by C. auris; format: in vivo, Candida auris; conditions: 2×108 C. auris i.v.
Description: An immunocompromised murine model of disseminated infection by C. auris was developed. To induce immunosuppression, Jackson B6.129X1Elane mice received a 200 mg/kg dose of cyclophosphamide (CY) by i.p. on day −3. Prolonged immunosuppression was maintained for 30 days by giving each animal a 200 mg/kg dose of CY by i.p. every 10 days after infection. On day 0, mice of different experimental groups were intravenously infected with 2×10^8 viable C. auris yeast cells.
The preventive effect of peptide-specific mAbs, for example 7H6A2 and 1D4H5, and combinations thereof, for example 7H6A2+1D4H5, was examined by passive transfer experiments. Each mAb was appropriately diluted in DPBS to give a 40,000-100,000 ELISA titer against each corresponding specific peptide coated on the plate. For testing, mice received 0.5 ml of each mAb or 1 ml of two mAbs in combination (0.5 ml of each) intraperitoneally. Control mice received 0.5 ml of the DPBS diluents.
Protective mAbs protect immunocompromised mice against disseminated infection by Candida auris: The possibility of using passive mAb immunotherapy in immunocompromised mice against disseminated candidiasis by C. auris. The protective effect of mAb 7H6A2, 1D4H5 or these two mAbs in combination against the disease in immunocompromised mice was examined by passive transfer experiments (FIG. 14). Mice received either mAb 7H6A2 or 1D4H5 or the two mAbs in combination had reduced CFUs in kidneys (FIG. 14A) and in brains (FIG. 14B) as compared with control mice.

C. auris AR-0386 = test: Passive transfer of mAbs or two mAbs in combination in A/J mouse model of invasive C. auris infection; format: in vivo, Candida auris; conditions: Table 19; A/J strain mice
Description: A. Complement protein C5-defecient A/J mice were treated with one of the five mAb or with DPBS as a vehicle control. The following day, mice were challenged with 1×10^8 C. auris cells/100 ul DPBS dose per mouse. […] B. Fungal burdens in the kidneys (top), heard (center), and brain (bottom).
Identified protective mAbs were obtained by use of standard hybridoma technique and purified by use of protein A/G. A/J mice were given an i.p. dose of either single mAb or two mAbs in combination 24 hours before hematogensous challenge with a lethal dose (2×108) of C. auris AR-0386 live cells. Mice received either 9G2F5 alone or 6H1G8 alone or 9F2G5 and 3H7E3 in combination had 40% survival rate respectively, with prolonged survival as compared to control animals that received DPBS buffer control.
Evaluation and validation of a panel of peptide-specific monoclonal antibodies (mAbs) as a passive immunization strategy protect against invasive C. auris infection in established A/J mouse model of human disease.
The monoclonal antibodies used in this experiment were: • 6H1G8 (IgG2b), α-Hwp1 (Hyphal wall protein) • 3E2G2 (IgG2b), α-Fba (Fructose bisphosphate aldolase) • 10E7E2 (IgG1), α-GPV-P3 (General peptide vaccine 3 from Phosphoglycerate kinase) • 9F2G5 (IgG2a), α-Pgk1 (Phosphoglycerate kinase) • 3H7E3 (IgG1), α-Met6 (Methyltetrahydropteroyltriglutamate)

AILGGSKVSDKI (CAILGGSKVSDKI) [GPV-P1]
coverage against medically important Candida spp [1]: able to provide broad coverage

SSSTVVAAL [Fba4]
specific antibody responses [2]: able to induce specific antibody responses

FWVNPDCGLKTR (CFWVNPDCGLKTR; (1)..(1) May or may not be present) [GPV-M1]
coverage against medically important Candida spp [1]: able to provide broad coverage

FAIPAINVTSSSTVVAALE [Fba3]
protection against disseminated candidiasis caused by C. albicans (C. albicans; FIG. 2, antigen-pulsed DC vaccine without CFA): good protective responses | CFUs in kidneys as compared to controls (C. albicans; FIG. 2 B and D): reduced or non-detectable CFUs | survival ([3]; FIG. 3A, i.v. challenge 1×10^6/mouse, up to 80 days): 80% | live fungal cells (CFU) in kidneys as compared to controls ([3]; FIG. 3B, p<0.001): significantly reduced live fungal cells | specific antibody responses [2]: able to induce specific antibody responses

IVIIGGGDTATVAKK (CIVIIGGGDTATVAKK; (1)..(1) May or may not be present) [GPV-P3]
coverage against medically important Candida spp [1]: able to provide broad coverage

TTTIGSFPQTKDIR (CTTTIGSFPQTKDIR; (1)..(1) May or may not be present) [GPV-M2]
coverage against medically important Candida spp [1]: able to provide broad coverage

PAINVTSSSTVVAALEAA [FbaU2]
specific antibody responses [2]: able to induce specific antibody responses

B1: 7H6A2: IgG2b mAb of hybridoma 7H6A2, specific for Met6 peptide (antibody)
heavy: QIQLVQSGPELKKPGETVKISCKASGYTFTDFSMHWVKQAPGKGLKWMGWINTETVEPTYADDFKGRFAFSLETSASTAYLQINNLKNEDTATYFCSRVSYDGYYGDFAMDYWSQGTSVTVSSAKTTAPSVYPLAPVCGDTTGSSVTLGCLVKGYFPEPVTLTWNSGSLSSGVHTFPAVLQSDLYTLSSSVTVTSSTWPSQSITCNVAHPASSTKVDKKIEPRGPTIKPCPPCKCPAPNLLGGPSVFIFPPKIKDVLMISLSPIVTCVVVDVSEDDPDVQISWFVNNVEVHTAQTQTHREDYNSTLRVVSALPIQHQDWMSGKEFKCKVNNKDLPAPIERTISKPKGSVRAPQVYVLPPPEEEMTKKQVTLTCMVTDFMPEDIYVEWTNNGKTELNYKNTEPVLDSDGSYFMYSKLRVEKKNWVERNSYSCSVVHEGLHNHHTTKSFSRTPGK
light: DIQMTQTTSSLSASLGDRVTISCRASQDISNYLNWYQQKPDGTVKLLIYYTSRLHSGVPSRFSGSGSGTDYSLTISNLEQEDIATYFCQQGNTLPWTFGGGTKLEIKRADAAPTVSIFPPSSEQLTSGGASVVCFLNNFYPKDINVKWKIDGSERQNGVLNSWTDQDSKDSTYSMSSTLTLTKDEYERHNSYTCEATHKTSTSPIVKSFNRNEC
Protection of adsorbed mAb (C. albicans 3153A): None | Protection (C. albicans 3153A): (80-90%) | Protection (grade word) (C. albicans 3153A): High | CFUs in kidneys as compared with control mice (C. auris; FIG. 14A): reduced CFUs | CFUs in brains as compared with control mice (C. auris; FIG. 14B): reduced CFUs; also recorded: no CFU detected | Protection against C. auris (C. auris AR-0386): 80-100% | Protection against C. auris (grade word) (C. auris AR-0386): High

B2: 2B10C1: IgG1 mAb of hybridoma 2B10C1, specific for Met6 peptide; VH SEQ ID NO: 60, VL SEQ ID NO: 62 (antibody, V domains shown)
VH: MGWSYIILFLLATATRVHSQVQLQQPGAEVVRPGASVKVSCKASGYTVSSYWMSWVKQRPEQGLEWIGRIDPYDSETHYNQKFKDKAILTVDKSSSTAYMQLSSLTSEDSAVYYCARTAASFDYWGQGTTLTVSS
VL: MKLPVRLLVLMFWIPASSSDVVMTQTPLSLPVSLGDQASISCRSSQSLVHSNGNSYLHWYLQKPGQSPKLLIYKVSNRFSGVPDRFSGSGSGTDFTLNISRVEAEDLGVYFCSQSTHVPFTFGSGTKLEIK
Protection of adsorbed mAb (C. albicans 3153A): None | Protection (C. albicans 3153A): (80-100%) | Protection (grade word) (C. albicans 3153A): High | Protection against C. auris (C. auris AR-0386): 60-90% | Protection against C. auris (grade word) (C. auris AR-0386): High
